Tests used:
[1] = target: Sulfolobus islandicus rod-shaped virus 3 (SIRV3) anti-CRISPR protein AcrID1 (C-terminal His6) (Sulfolobus islandicus rod-shaped virus 3 (SIRV3)); test: crystal structure; Se-Met Cas10d and AcrID1 mixed 1:2 (Cas10d:AcrID1), 75 °C for 1 min, complex isolated on Superdex 200 (30 mM Hepes-NaOH pH 7.5, 150 mM NaCl, 5 mM β-ME); crystals in 0.1 M Hepes pH 7.5, 4% PEG 8000, 5% ethylene glycol, 19 °C; SAD, 3.5 Å
[2] = target: Sulfolobus islandicus type I-D Cas10d large subunit (Se-Met substituted, C-terminal His6) (Sulfolobus islandicus); test: as above

Sulfolobus islandicus rod-shaped virus 3 (SIRV3) anti-CRISPR protein AcrID1 (C-terminal His6) (natural protein)
stoichiometry N [1]: 2 | stoichiometry N (AcrID1 per Cas10d) [2]: 2

Source: PMC7689449
